Assay [1] concerns the target T1, mucin domain-deleted Zaire GP (GPdMuc) (Ebola (Zaire) virus (EBOV), UniProt Q05320 33-632).
T1 construct: also called Zaire GPdMuc; GP(Z)dMuc
Kind of assay: ELISA on coated GP. (An ELISA detects its analyte on a solid surface through an enzyme-linked reagent.)

The target of assay [2] is T2, mucin domain-deleted Sudan GP (GPdMuc) (Sudan virus (SUDV), UniProt Q7T9D9 33-632).
T2 construct: also called Sudan GPdMuc; GP(S)dMuc
Kind of assay: ELISA on coated GP.

Assay [3] concerns the target T2, mucin domain-deleted Sudan GP (GPdMuc). Kind of assay: ELISA on coated GP (EC50).
The target in assay [4] is T3, mucin domain-deleted Zaire GP (GPdMuc) (Ebola (Zaire) virus (EBOV), UniProt Q05320 33-632). Kind of assay: ELISA on coated GP.
Assay [5] addresses T3, mucin domain-deleted Zaire GP (GPdMuc). Put plainly: BLI competition on Zaire GPdMuc (upper table); competitor 316L.
Assay [6] shares this target. Kind of assay: BLI competition on Zaire GPdMuc (upper table); competitor KZ52.
The target is the same in assay [7]. Put plainly: ELISA on coated GP. The source holds these as a separate data set.
Assay [8] shares this target. Put plainly: BLI competition on Zaire GPdMuc (upper table); competitor 15H10.
For assay [9] the target is unchanged. Kind of assay: BLI competition on Zaire GPdMuc (upper table); competitor 13C6.
Assay [10] has the same target. Kind of assay: BLI competition on Zaire GPdMuc (upper table); competitor 380L.

Read-outs that look alike come from different tables or passages of the source.

B1: antibody 232L (antibody, V domains shown)
VH: KSQLVESGGGLVQPGGSLRLSCAASGFTFDAYAMHWVRQAPGEGLEWVTAISWSGSSTYYADSVKGRFTFSRDNAKNSLYLEMNSLRADDTAFYYCVKGGVYNWFDVWGPGVLVTVSS
VL: QSVLTQPPSVSGAPGQRVTISCTGSRSNIGGYYVSWYQQFPGTTPKLLIYQDNKRPSGVSDRFSGSKSGTSASLTITGLQTEDEADYYCLSYDSSLNGWVFGGGTRLTVL
Turning to B1, the figures for the EC50 in [1], in [2] and in [3] were 0.08 µg/mL, more than 10 µg/mL and more than 10 µg/mL, respectively.

B2: antibody mAb114 (antibody, V domains shown)
VH: EVQLVESGGGLIQPGGSLRLSCAASGFALRMYDMHWVRQTIDKRLEWVSAVGPSGDTYYADSVKGRFAVSRENAKNSLSLQMNSLTAGDTAIYYCVRSDRGVAGLFDSWGQGILVTVSS
VL: DIQMTQSPSSLSASVGDRITITCRASQAFDNYVAWYQQRPGKVPKLLISAASALHAGVPSRFSGSGSGTHFTLTISSLQPEDVATYYCQNYNSAPLTFGGGTKVEIK
Turning to B2, the EC50 (as a rule, the concentration at which the effect is half-maximal) in assay [4] is 0.007 µg/mL; in assay [7], 0.00904 µg/mL. Further, the “% inhibition of binding” value is 96% in assay [5]; 10% in assay [6]; 3% in assay [8]; 92% in assay [9]; 95% in assay [10].

(Values after patent US20260209316A1 (US Dept. of Health and Human Services, published 2026).)
